Test results published in patent publication US20240269303A1 (RESEARCH DEVELOPMENT FOUNDATION, published 2024).

Key:
LGR5 [1] = biological target: T1, LGR5 (UniProt O75473 22-907, limits assumed); experiment: cell-based or functional assay
T1 sequence (looked up): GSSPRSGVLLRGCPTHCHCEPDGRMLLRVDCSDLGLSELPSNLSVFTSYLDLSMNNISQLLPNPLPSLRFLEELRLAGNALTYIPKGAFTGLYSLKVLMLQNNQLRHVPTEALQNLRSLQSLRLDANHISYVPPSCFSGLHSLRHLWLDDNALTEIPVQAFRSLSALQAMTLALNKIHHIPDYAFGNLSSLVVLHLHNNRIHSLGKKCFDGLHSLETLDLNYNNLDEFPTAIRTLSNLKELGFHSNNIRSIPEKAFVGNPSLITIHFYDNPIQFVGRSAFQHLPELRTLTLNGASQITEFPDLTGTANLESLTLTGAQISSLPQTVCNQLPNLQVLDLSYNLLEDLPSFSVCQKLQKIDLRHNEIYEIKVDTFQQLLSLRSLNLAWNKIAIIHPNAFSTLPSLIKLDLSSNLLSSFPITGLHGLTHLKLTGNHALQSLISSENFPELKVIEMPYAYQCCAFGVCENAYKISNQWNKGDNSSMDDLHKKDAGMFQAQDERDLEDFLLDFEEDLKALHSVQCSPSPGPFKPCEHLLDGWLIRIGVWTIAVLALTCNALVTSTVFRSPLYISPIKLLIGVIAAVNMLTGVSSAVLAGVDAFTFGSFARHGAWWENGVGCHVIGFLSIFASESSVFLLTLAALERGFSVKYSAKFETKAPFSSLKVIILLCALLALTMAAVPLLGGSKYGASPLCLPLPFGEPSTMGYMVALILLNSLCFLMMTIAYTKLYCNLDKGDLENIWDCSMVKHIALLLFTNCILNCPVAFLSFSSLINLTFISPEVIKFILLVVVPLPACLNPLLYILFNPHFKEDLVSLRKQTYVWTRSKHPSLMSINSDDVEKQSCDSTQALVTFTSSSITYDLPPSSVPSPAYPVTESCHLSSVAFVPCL

LGR5 [2] = biological target: T1, LGR5; experiment: cell-based or functional assay; remark: listed apart in the source

B1: FcF2-deruxtecan (Fc fusion)
chain: EPKSCDKTHTCPPCPAPELLGGPSVFLFPPKPKDTLMISRTPEVTCVVVDVSHEDPEVKFNWYVDGVEVHNAKTKPREEQYNSTYRVVSVLTVDHHDWLNGKEYKCKVSNKALPAPIEKTISKAKGQPREPQVYTLPPSRDELTKNQVSLTCLVKGFYPSDIAVEWESNGQPENNYKTTPPVLDSDGSFFLYSKLTVDKSRWQQGNVFSCSVMHEALHSHYTQKSLSLSPGKGGGGSGGGGSSRGIKGKRQRRISAEGSQACAKGCELCSEVNGCLKCSPKLFILLERNDIRQVGVCLPSCPPGYFDARNPDMNKCIKCKIEHCEACFSHNFCTKCKEGLYLHKGRCYPACPEGSSAANGTMECSSPGGGGSGGGGSLPETGGGC
modifications: C-terminal Cys of GGGC carries maleimide-GGFG-deruxtecan
IC50 of growth inhibition, OVCAR8/EV cells (LGR5-poor control; CCK8, 120 h) (LGR5 [1]): 9.04 nM | IC50 of growth inhibition, OVCAR8/LGR5 cells (CCK8, 120 h) (LGR5 [1]): 0.753 nM | selectivity, OVCAR8/LGR5 against OVCAR8/EV (LGR5 [1]): 12 fold

B2: FcF2Δlinker-MMAE (Fc fusion)
chain: EPKSCDKTHTCPPCPAPELLGGPSVFLFPPKPKDTLMISRTPEVTCVVVDVSHEDPEVKFNWYVDGVEVHNAKTKPREEQYNSTYRVVSVLTVDHHDWLNGKEYKCKVSNKALPAPIEKTISKAKGQPREPQVYTLPPSRDELTKNQVSLTCLVKGFYPSDIAVEWESNGQPENNYKTTPPVLDSDGSFFLYSKLTVDKSRWQQGNVFSCSVMHEALHSHYTQKSLSLSPGKSRGIKGKRQRRISAEGSQACAKGCELCSEVNGCLKCSPKLFILLERNDIRQVGVCLPSCPPGYFDARNPDMNKCIKCKIEHCEACFSHNFCTKCKEGLYLHKGRCYPACPEGSSAANGTMECSSPLPETGGG
modifications: C-terminal GGG carries valine-citrulline-PAB-MMAE
IC50 (read off the curve), growth inhibition of OVCAR8/LGR5 cells [panel ExpiCHO FcF2-MMAE linker deletion batch #1] (LGR5 [2]): ~4 nM

B3: FcF2-PNU159682 (Fc fusion)
chain: EPKSCDKTHTCPPCPAPELLGGPSVFLFPPKPKDTLMISRTPEVTCVVVDVSHEDPEVKFNWYVDGVEVHNAKTKPREEQYNSTYRVVSVLTVDHHDWLNGKEYKCKVSNKALPAPIEKTISKAKGQPREPQVYTLPPSRDELTKNQVSLTCLVKGFYPSDIAVEWESNGQPENNYKTTPPVLDSDGSFFLYSKLTVDKSRWQQGNVFSCSVMHEALHSHYTQKSLSLSPGKGGGGSGGGGSSRGIKGKRQRRISAEGSQACAKGCELCSEVNGCLKCSPKLFILLERNDIRQVGVCLPSCPPGYFDARNPDMNKCIKCKIEHCEACFSHNFCTKCKEGLYLHKGRCYPACPEGSSAANGTMECSSPGGGGSGGGGSLPET
modifications: PNU159682 (anthracycline derivative) joined to the C-terminus by sortase A; the linker is not described
IC50 of growth inhibition, OVCAR8/EV cells (LGR5-poor control) (LGR5 [1]): > 3 nM | IC50 of growth inhibition, OVCAR8/LGR5 cells (LGR5 [1]): 0.3 nM | IC50 ratio, OVCAR8/EV to OVCAR8/LGR5 (LGR5 [1]): ~10 ratio

B4: FcST4-MMAE (Fc fusion)
chain: EPKSCDKTHTCPPCPAPELLGGPSVFLFPPKPKDTLMISRTPEVTCVVVDVSHEDPEVKFNWYVDGVEVHNAKTKPREEQYNSTYRVVSVLTVDHHDWLNGKEYKCKVSNKALPAPIEKTISKAKGQPREPQVYTLPPSRDELTKNQVSLTCLVKGFYPSDIAVEWESNGQPENNYKTTPPVLDSDGSFFLYSKLTVDKSRWQQGNVFSCSVMHEALHSHYTQKSLSLSPGKGGGGSGGGGSSRGIKGKRQRRISAEGSQACAKGCELCSEVNGCLKCSPKLFILLERNDIRQVGVCLPSCPPGYFDARNPDMNKCIKCKIEHCEACFSHNFCTKCKEGLYLHKGRCYPACPEGSSAANGTMECSSPGGGGSGGGGSSRGIKGKRQRRISAEGSQACAKGCELCSEVNGCLKCSPKLFILLERNDIRQVGVCLPSCPPGYFDARNPDMNKCIKCKIEHCEACFSHNFCTKCKEGLYLHKGRCYPACPEGSSAANGTMECSSPGGGGSGGGGSLPETGGG
modifications: C-terminal GGG carries val-cit-PAB-MMAE (sortase reaction with G3-val-cit-PAB-MMAE; GG-8xHis removed)
IC50 of cytotoxicity (OVCAR8 empty vector and LGR5-overexpressing cells; the cell line of each end is not stated) (LGR5 [1]): 1.9 to 3.8 nM
